One block for each binder: values may come before it.
Key:
[1] = target: T1, human PD1 on cells (Jurkat cells expressing human PD1; activated human T cells) (human, UniProt Q15116 25-288); test: cell-based or functional assay
[2] = target: T1, human PD1 on cells (Jurkat cells …); test: cell-based or functional assay; remark: listed apart in the source
[3] = target: T1, human PD1 on cells (Jurkat cells …); test: cell-based or functional assay; remark: listed apart in the source
[4] = target: T1, human PD1 on cells (Jurkat cells …); test: cell-based or functional assay; remark: listed apart in the source
[5] = target: T1, human PD1 on cells (Jurkat cells …); test: cell-based or functional assay; remark: listed apart in the source
[6] = target: T2, human TfR on cells (Jurkat cells; activated human T cells) (human, UniProt P02786 1-760); test: flow cytometry, Jurkat cells (WT, PD-1 low, PD-1 high), 2 h on ice, detection with biotinylated Cy5 (Median APC)
T2 construct: also called Transferrin receptor; CD71
T2 sequence (P02786 whole entry): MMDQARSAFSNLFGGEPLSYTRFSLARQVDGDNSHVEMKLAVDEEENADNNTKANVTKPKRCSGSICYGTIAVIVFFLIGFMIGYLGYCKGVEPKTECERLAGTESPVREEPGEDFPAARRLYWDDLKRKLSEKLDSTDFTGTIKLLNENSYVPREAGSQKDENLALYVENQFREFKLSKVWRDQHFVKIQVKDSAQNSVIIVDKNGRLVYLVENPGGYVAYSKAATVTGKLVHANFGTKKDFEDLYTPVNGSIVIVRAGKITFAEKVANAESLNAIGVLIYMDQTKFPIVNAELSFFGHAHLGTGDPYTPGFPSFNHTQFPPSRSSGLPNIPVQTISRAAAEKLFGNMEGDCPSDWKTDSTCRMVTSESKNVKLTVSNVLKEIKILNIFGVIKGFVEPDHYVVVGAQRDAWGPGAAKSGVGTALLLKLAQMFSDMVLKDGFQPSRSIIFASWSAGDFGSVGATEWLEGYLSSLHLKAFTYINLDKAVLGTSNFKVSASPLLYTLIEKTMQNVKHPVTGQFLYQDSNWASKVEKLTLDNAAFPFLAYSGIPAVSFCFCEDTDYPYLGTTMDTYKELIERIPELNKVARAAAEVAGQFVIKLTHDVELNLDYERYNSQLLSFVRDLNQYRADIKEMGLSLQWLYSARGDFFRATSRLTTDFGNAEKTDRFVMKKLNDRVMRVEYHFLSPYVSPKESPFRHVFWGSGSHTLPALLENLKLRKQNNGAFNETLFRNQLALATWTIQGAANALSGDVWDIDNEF

T1 sequence (Q15116 25-288 limits assumed): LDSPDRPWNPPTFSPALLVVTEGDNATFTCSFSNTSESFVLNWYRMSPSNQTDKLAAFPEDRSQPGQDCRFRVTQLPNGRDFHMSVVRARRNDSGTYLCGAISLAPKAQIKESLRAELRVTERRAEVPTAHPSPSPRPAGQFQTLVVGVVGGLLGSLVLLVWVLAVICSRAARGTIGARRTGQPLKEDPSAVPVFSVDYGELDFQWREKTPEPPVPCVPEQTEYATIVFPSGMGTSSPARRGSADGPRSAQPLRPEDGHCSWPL

B3: bispecific 2+1 CrossMab 8156 (PD1-0103-0312/TfR(51A165) BBB-format) (bispecific antibody, human IgG1, kappa, L234A L235A)
light 1: EVQLLESGGGLVQPGGSLRLSCAASGFSFSSYTMSWVRQAPGKGLEWVATISGGGRDIYYPDSVKGRFTISRDNSKNTLYLQMNSLRAEDTAVYYCVLLTGRVYFALDSWGQGTLVTVSSASVAAPSVFIFPPSDEQLKSGTASVVCLLNNFYPREAKVQWKVDNALQSGNSQESVTEQDSKDSTYSLSSTLTLSKADYEKHKVYACEVTHQGLSSPVTKSFNRGEC
light 2: QIVLTQSPAIMSASPGEKVTVTCSASSSIRYMHWYQQKPGTSPKRWIYDTSELASGVPARFSGSGSGTSYSLTINSMEAEDAATYYCHQRSSYPFTFGGGTKLEIKRTVAAPSVFIFPPSDRKLKSGTASVVCLLNNFYPREAKVQWKVDNALQSGNSQESVTEQDSKDSTYSLSSTLTLSKADYEKHKVYACEVTHQGLSSPVTKSFNRGEC
heavy 1: DIVMTQSPDSLAVSLGERATINCKASESVDTSDNSFIHWYQQKPGQSPKLLIYRSSTLESGVPDRFSGSGSGTDFTLTISSLQAEDVAVYYCQQNYDVPWTFGQGTKVEIKSSASTKGPSVFPLAPSSKSTSGGTAALGCLVKDYFPEPVTVSWNSGALTSGVHTFPAVLQSSGLYSLSSVVTVPSSSLGTQTYICNVNHKPSNTKVDKKVEPKSCDKTHTCPPCPAPEAAGGPSVFLFPPKPKDTLMISRTPEVTCVVVDVSHEDPEVKFNWYVDGVEVHNAKTKPREEQYNSTYRVVSVLTVLHQDWLNGKEYKCKVSNKALGAPIEKTISKAKGQPREPQVCTLPPSRDELTKNQVSLSCAVKGFYPSDIAVEWESNGQPENNYKTTPPVLDSDGSFFLVSKLTVDKSRWQQGNVFSCSVMHEALHNHYTQKSLSLSPGKGGGGSGGGGSEVQLQQSGPELVKPGASVKMSCKASGYTFTSYVMHWVKQKPGQGLEWIGYVNPYNDDTKYNEKFRGKATLTSDKSSSTAYMELSSLTSEDSAVYYCARSYYYYSMDNWGQGTSVTVSSASTKGPSVFPLAPSSKSTSGGTAALGCLVEDYFPEPVTVSWNSGALTSGVHTFPAVLQSSGLYSLSSVVTVPSSSLGTQTYICNVNHKPSNTKVDEKVEPKSCD
heavy 2: not shown
- Fold activity vs. control (EC50 of Granzyme B, mMLR), control PD1-0103-0312 [4]: 7.83 fold vs PD1-0103-0312
- Fold activity vs. control (EC50 of Granzyme B, mMLR), control 8158 [5]: 4.44 fold vs 8158
- EC50 (pM) of Granzyme B production, mMLR [3]: 25.8 pM

B4: TfR/Nada/anti-Biotin control antibody 9903 (bispecific antibody, human IgG1, kappa, L234A L235A)
heavy 1: not shown
light 1: QIVLTQSPAIMSASPGEKVTVTCSASSSIRYMHWYQQKPGTSPKRWIYDTSELASGVPARFSGSGSGTSYSLTINSMEAEDAATYYCHQRSSYPFTFGGGTKLEIKRTVAAPSVFIFPPSDEQLKSGTASVVCLLNNFYPREAKVQWKVDNALQSGNSQESVTEQDSKDSTYSLSSTLTLSKADYEKHKVYACEVTHQGLSSPVTKSFNRGEC
heavy 2: EVQLVESGGGLVQPGGSLRLSCAASGFSIAGTAIHWVRQAPGKGLEWVASISPGGGSTAYADSVKGRFTISADTSKNTAYLQMNSLRAEDTAVYYCSRSGGSGASAMDYWGQGTLVTVSSASVAAPSVFIFPPSDEQLKSGTASVVCLLNNFYPREAKVQWKVDNALQSGNSQESVTEQDSKDSTYSLSSTLTLSKADYEKHKVYACEVTHQGLSSPVTKSFNRGECDKTHTCPPCPAPEAAGGPSVFLFPPKPKDTLMISRTPEVTCVVVDVSHEDPEVKFNWYVDGVEVHNAKTKPREEQYNSTYRVVSVLTVLHQDWLNGKEYKCKVSNKALGAPIEKTISKAKGQPREPQVCTLPPSRDELTKNQVSLSCAVKGFYPSDIAVEWESNGQPENNYKTTPPVLDSDGSFFLVSKLTVDKSRWQQGNVFSCSVMHEALHNHYTQKSLSLSPGKGGGGSGGGGSDIQMTQSPSSLSASVGDRVTITCRASGNIHNYLSWYQQKPGKVPKLLIYSAKTLADGVPSRFSGSGSGTDFTLTISSLQPEDVATYYCQHFWSSIYTFGCGTKLEIKRGGGGSGGGGSGGGGSGGGGSQVQLVQSGAEVKKPGSSVKVSCKSSGFNNKDTFFQWVRQAPGQCLEWMGRIDPANGFTKYAQKFQGRVTITADTSTSTAYMELSSLRSEDTAVYYCARWDTYGAAWFAYWGQGTLVTVSS
light 2: DIQMTQSPSSLSASVGDRVTITCRASQDVGSGVAWYQQKPGKAPKLLIGSASGLYSGVPSRFSGSRSGTDFTLTISSLQPEDFATYYCQQSASGGSTFGQGTKVEIKSSASTKGPSVFPLAPSSKSTSGGTAALGCLVKDYFPEPVTVSWNSGALTSGVHTFPAVLQSSGLYSLSSVVTVPSSSLGTQTYICNVNHKPSNTKVDKKVEPKSC
notes: monovalent for TfR; also called αTfR/Nada; Nada/αTfR
- binding result [6]: binds

B5: bispecific 2+1 CrossMab 8157 (PD1-0103-0312/TfR(51A165) TCB-format) (bispecific antibody, human IgG1, kappa, L234A L235A)
light 1: EVQLLESGGGLVQPGGSLRLSCAASGFSFSSYTMSWVRQAPGKGLEWVATISGGGRDIYYPDSVKGRFTISRDNSKNTLYLQMNSLRAEDTAVYYCVLLTGRVYFALDSWGQGTLVTVSSASVAAPSVFIFPPSDEQLKSGTASVVCLLNNFYPREAKVQWKVDNALQSGNSQESVTEQDSKDSTYSLSSTLTLSKADYEKHKVYACEVTHQGLSSPVTKSFNRGEC
light 2: QIVLTQSPAIMSASPGEKVTVTCSASSSIRYMHWYQQKPGTSPKRWIYDTSELASGVPARFSGSGSGTSYSLTINSMEAEDAATYYCHQRSSYPFTFGGGTKLEIKRTVAAPSVFIFPPSDRKLKSGTASVVCLLNNFYPREAKVQWKVDNALQSGNSQESVTEQDSKDSTYSLSSTLTLSKADYEKHKVYACEVTHQGLSSPVTKSFNRGEC
heavy 1: DIVMTQSPDSLAVSLGERATINCKASESVDTSDNSFIHWYQQKPGQSPKLLIYRSSTLESGVPDRFSGSGSGTDFTLTISSLQAEDVAVYYCQQNYDVPWTFGQGTKVEIKSSASTKGPSVFPLAPSSKSTSGGTAALGCLVKDYFPEPVTVSWNSGALTSGVHTFPAVLQSSGLYSLSSVVTVPSSSLGTQTYICNVNHKPSNTKVDKKVEPKSCDGGGGSGGGGSEVQLQQSGPELVKPGASVKMSCKASGYTFTSYVMHWVKQKPGQGLEWIGYVNPYNDDTKYNEKFRGKATLTSDKSSSTAYMELSSLTSEDSAVYYCARSYYYYSMDNWGQGTSVTVSSASTKGPSVFPLAPSSKSTSGGTAALGCLVEDYFPEPVTVSWNSGALTSGVHTFPAVLQSSGLYSLSSVVTVPSSSLGTQTYICNVNHKPSNTKVDEKVEPKSCDKTHTCPPCPAPEAAGGPSVFLFPPKPKDTLMISRTPEVTCVVVDVSHEDPEVKFNWYVDGVEVHNAKTKPREEQYNSTYRVVSVLTVLHQDWLNGKEYKCKVSNKALGAPIEKTISKAKGQPREPQVCTLPPSRDELTKNQVSLSCAVKGFYPSDIAVEWESNGQPENNYKTTPPVLDSDGSFFLVSKLTVDKSRWQQGNVFSCSVMHEALHNHYTQKSLSLSP
heavy 2: not shown
- Fold activity vs. control (EC50 of Granzyme B, mMLR), control PD1-0103-0312 [4]: 6.6 fold vs PD1-0103-0312
- Fold activity vs. control (EC50 of Granzyme B, mMLR), control 8159 [5]: 16.3 fold vs 8159
- EC50 (pM) of Granzyme B production, mMLR [3]: 12 pM

Second part, the binder after the results:

- Fold activity vs. control (EC50 of Granzyme B, mMLR), control PD1-0103-312 [1]: 1.92 fold vs PD1-0103-312
- Fold activity vs. control (EC50 of Granzyme B, mMLR), control 8019 [2]: 1510 fold vs 8019
- EC50 (pM) of Granzyme B production, mMLR [3]: 121 pM
B1: bispecific CrossMab 8017 (Pembrolizumab/1026) (bispecific antibody, human IgG1, kappa, L234A L235A)
heavy 1: QSMQESGPGLVKPSQTLSLTCTVSGFSLSSYAMSWIRQHPGKGLEWIGYIWSGGSTDYASWAKSRVTISKTSTTVSLKLSSVTAADTAVYYCARRYGTSYPDYGDASGFDPWGQGTLVTVSSASTKGPSVFPLAPSSKSTSGGTAALGCLVEDYFPEPVTVSWNSGALTSGVHTFPAVLQSSGLYSLSSVVTVPSSSLGTQTYICNVNHKPSNTKVDEKVEPKSCDKTHTCPPCPAPEAAGGPSVFLFPPKPKDTLMISRTPEVTCVVVDVSHEDPEVKFNWYVDGVEVHNAKTKPREEQYNSTYRVVSVLTVLHQDWLNGKEYKCKVSNKALGAPIEKTISKAKGQPREPQVCTLPPSRDELTKNQVSLSCAVKGFYPSDIAVEWESNGQPENNYKTTPPVLDSDGSFFLVSKLTVDKSRWQQGNVFSCSVMHEALHNHYTQKSLSLSP
light 1: AIQLTQSPSSLSASVGDRVTITCRASQSISSYLAWYQQKPGKAPKLLIYRASTLASGVPSRFSGSGSGTDFTLTISSLQPEDFATYYCQQNYASSNVDNTFGGGTKVEIKRTVAAPSVFIFPPSDRKLKSGTASVVCLLNNFYPREAKVQWKVDNALQSGNSQESVTEQDSKDSTYSLSSTLTLSKADYEKHKVYACEVTHQGLSSPVTKSFNRGEC
heavy 2: not shown
light 2: QVQLVQSGVEVKKPGASVKVSCKASGYTFTNYYMYWVRQAPGQGLEWMGGINPSNGGTNFNEKFKNRVTLTTDSSTTTAYMELKSLQFDDTAVYYCARRDYRFDMGFDYWGQGTTVTVSSASVAAPSVFIFPPSDEQLKSGTASVVCLLNNFYPREAKVQWKVDNALQSGNSQESVTEQDSKDSTYSLSSTLTLSKADYEKHKVYACEVTHQGLSSPVTKSFNRGEC

- Fold activity vs. control (EC50 of Granzyme B, mMLR), control PD1-0103-312 [1]: 5.97 fold vs PD1-0103-312
- Fold activity vs. control (EC50 of Granzyme B, mMLR), control 8019 [2]: 4720 fold vs 8019
- EC50 (pM) of Granzyme B production, mMLR [3]: 139 pM
B2: bispecific CrossMab 8018 (Pembrolizumab/51A165) (bispecific antibody, human IgG1, kappa, L234A L235A)
heavy 1: EVQLQQSGPELVKPGASVKMSCKASGYTFTSYVMHWVKQKPGQGLEWIGYVNPYNDDTKYNEKFRGKATLTSDKSSSTAYMELSSLTSEDSAVYYCARSYYYYSMDNWGQGTSVTVSSASTKGPSVFPLAPSSKSTSGGTAALGCLVEDYFPEPVTVSWNSGALTSGVHTFPAVLQSSGLYSLSSVVTVPSSSLGTQTYICNVNHKPSNTKVDEKVEPKSCDKTHTCPPCPAPEAAGGPSVFLFPPKPKDTLMISRTPEVTCVVVDVSHEDPEVKFNWYVDGVEVHNAKTKPREEQYNSTYRVVSVLTVLHQDWLNGKEYKCKVSNKALGAPIEKTISKAKGQPREPQVCTLPPSRDELTKNQVSLSCAVKGFYPSDIAVEWESNGQPENNYKTTPPVLDSDGSFFLVSKLTVDKSRWQQGNVFSCSVMHEALHNHYTQKSLSLSP
light 1: QIVLTQSPAIMSASPGEKVTVTCSASSSIRYMHWYQQKPGTSPKRWIYDTSELASGVPARFSGSGSGTSYSLTINSMEAEDAATYYCHQRSSYPFTFGGGTKLEIKRTVAAPSVFIFPPSDRKLKSGTASVVCLLNNFYPREAKVQWKVDNALQSGNSQESVTEQDSKDSTYSLSSTLTLSKADYEKHKVYACEVTHQGLSSPVTKSFNRGEC
heavy 2: not shown
light 2: QVQLVQSGVEVKKPGASVKVSCKASGYTFTNYYMYWVRQAPGQGLEWMGGINPSNGGTNFNEKFKNRVTLTTDSSTTTAYMELKSLQFDDTAVYYCARRDYRFDMGFDYWGQGTTVTVSSASVAAPSVFIFPPSDEQLKSGTASVVCLLNNFYPREAKVQWKVDNALQSGNSQESVTEQDSKDSTYSLSSTLTLSKADYEKHKVYACEVTHQGLSSPVTKSFNRGEC
